In publication PMC4497409, “Structure and functional properties of Norrin mimic Wnt for signalling with Frizzled4, Lrp5/6, and proteoglycan” (eLife, 2015):
“And” between values parts separate entries of the source, which are not always exact repeats. Equal values may be shown once.

T1: Lrp6 ectodomain fragment comprising the first two tandem beta-propeller-epidermal growth factor-like domain … (human, UniProt O75581 20-631)
T1 construct: signal peptide in the construct; low-density lipoprotein receptor related protein 6, human, residues 1-631 (P1E1P2E2)
T1 sequence (looked up): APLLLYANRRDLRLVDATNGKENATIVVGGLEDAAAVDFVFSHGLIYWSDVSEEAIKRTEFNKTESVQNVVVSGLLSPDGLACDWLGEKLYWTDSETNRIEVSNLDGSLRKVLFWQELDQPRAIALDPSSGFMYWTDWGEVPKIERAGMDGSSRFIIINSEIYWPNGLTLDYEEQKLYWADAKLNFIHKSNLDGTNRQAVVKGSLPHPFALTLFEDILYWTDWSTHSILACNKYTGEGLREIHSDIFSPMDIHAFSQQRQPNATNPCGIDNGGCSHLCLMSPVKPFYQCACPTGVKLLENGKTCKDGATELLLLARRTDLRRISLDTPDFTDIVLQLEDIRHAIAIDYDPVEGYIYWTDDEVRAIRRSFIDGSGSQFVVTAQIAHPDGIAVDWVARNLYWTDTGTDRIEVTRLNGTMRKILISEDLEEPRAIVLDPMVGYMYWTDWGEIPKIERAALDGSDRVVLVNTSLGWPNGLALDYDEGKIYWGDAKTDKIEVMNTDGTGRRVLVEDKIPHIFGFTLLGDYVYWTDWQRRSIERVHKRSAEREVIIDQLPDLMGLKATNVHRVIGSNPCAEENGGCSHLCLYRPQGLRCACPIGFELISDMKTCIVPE

T2: Frizzled5 cysteine-rich domain, mouse (mouse, UniProt Q9EQD0 31-176)
T2 sequence (looked up): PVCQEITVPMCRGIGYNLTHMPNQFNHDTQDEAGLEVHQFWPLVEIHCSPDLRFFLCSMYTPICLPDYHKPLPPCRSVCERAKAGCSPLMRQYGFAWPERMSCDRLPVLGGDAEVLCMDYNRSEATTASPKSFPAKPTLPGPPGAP

T3: Frizzled8 cysteine-rich domain, mouse (mouse, UniProt Q61091 30-170)
T3 sequence (looked up): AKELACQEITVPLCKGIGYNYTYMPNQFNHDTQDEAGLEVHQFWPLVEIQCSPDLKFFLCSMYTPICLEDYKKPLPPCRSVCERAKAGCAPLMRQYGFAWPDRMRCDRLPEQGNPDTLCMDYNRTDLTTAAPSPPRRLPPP

B1: Frizzled4 cysteine-rich domain (Fz4CRD), human (domain or fragment, UniProt Q9ULV1 42-179, looked up)
chain: ERRCDPIRISMCQNLGYNVTKMPNLVGHELQTDAELQLTTFTPLIQYGCSSQLQFFLCSVYVPMCTEKINIPIGPCGGMCLSVKRRCEPVLKEFGFAWPESLNCSKFPPQNDHNHMCMEGPGDEEVPLPHKTPIQPGE
modifications: N-linked glycans at Asn59 and Asn144 (full, or cut to N-acetylglucosamine by Endo-F1)
notes: Frizzled4 cysteine-rich domain, human, residues 42-179; Glycosylated and deglycosylated samples of the same construct are kept as one molecule; the assay's format tells which was used; also called human Fz4CRD; source: HEK293T, secreted, purified (IMAC, HRV-3C cleavage, IMAC, SEC); with kifunensine and Endo-F1 treatment for crystallisation and the deglycosylated samples; fully glycosylated for …
B2: Biotinylated human Norrin wild-type (pHL-Avitag3 construct) (ligand, UniProt Q00604 25-133, looked up)
chain: KTDSSFIMDSDPRRCMRHHYVDSISHPLYKCSSKMVLLARCEGHCSQASRSEPLVSFSTVLKQPFRSSCHCCRPQTSKLKALRLRCSGGMRLTATYRYILSCHCEECNS
modifications: biotin on the C-terminal BirA recognition sequence (in vivo biotinylation)
notes: Norrin (Norrie Disease Protein), human, UniProtKB/Swiss-Prot Q00604; The same plasmids were used in the luciferase reporter assays; also called Norrin WT; source: HEK293T, co-transfected with BirA-ER for in vivo biotinylation, secreted

Experiments:
[1] = target: T4, Norrin (Norrie Disease Protein), recombinant wild-type after removal of the SUMO fusion tag (human, UniProt Q00604 25-133); assay: SAXS; deglycosylated Norrin-Fz4CRD complex at 1.02 and 2.14 mg/ml in 10 mM HEPES, 0.5 M NaCl, without SOS; 293 K; conditions: both partners purified
T4 construct: Norrin (Norrie Disease Protein), human, UniProtKB/Swiss-Prot Q00604, residues 25-133; Disulphide-linked homodimer (Cys93-Cys95, Cys95-Cys93, Cys131-Cys131); also called untagged Norrin; Norrin wild-type; source: for the complex co-expressed with Fz4CRD in HEK293T with kifunensine and valproic acid, purified (IMAC, SEC); not shown: Strep-II, N-terminal, cleaved; His8, N-terminal, cleaved; SUMO (S. …)

[2] = target: T5, Norrin R107E/R109E/R115L (in the Norrin R107E/R109E/R115L-Fz4CRD complex) (human, UniProt Q00604 25-133, R107E | R109E | R115L); assay: SEC-MALS; Norrin-Fz4CRD complex at 25 uM (glycosylated and deglycosylated), without SOS, on Superdex S200 10/300 GL in 10 mM HEPES, pH 7.5, 0.15 mM NaCl (so in the source); conditions: both partners purified
T5 construct: Norrin, human, UniProtKB/Swiss-Prot Q00604, residues 25-133; source: HEK293T, complex with Fz4CRD, purified (SEC)

[3] = target: B1; assay: SPR; Biacore T200, 25 C, 10 mM HEPES, pH 7.5, 0.15 M NaCl, 0.005% Tween20; biotinylated Norrin variants captured on streptavidin coupled to a CM5 chip; glycosylated FzCRD proteins or Lrp6 P1E1P2E2 as analytes; equilibrium binding, 1:1 Langmuir model; whether the biotinylated Norrin was purified before capture is not told
[4] = target: T1, Lrp6 ectodomain fragment comprising the …; assay: as above
[5] = target: T2, Frizzled5 cysteine-rich domain, mouse; assay: as above
[6] = target: T3, Frizzled8 cysteine-rich domain, mouse; assay: as above

| Binder | stoichiometry N [1] | stoichiometry N [2] | Kd [3] | Kd [4] [nM] | Kd [5] [nM] | Kd [6] [nM] |
| --- | --- | --- | --- | --- | --- | --- |
| B1 | 2 Fz4CRD per Norrin dimer (printed 2:2) | 2 Fz4CRD per Norrin dimer (printed 2:2) |  |  |  |  |
| B2 |  |  | 1100 nM and 1000 nM | 2870 | 42000 | 64000 |
